The values below come from US12648946B2, “Combination of antibody-pyrrolobenzodiazepine derivative conjugate and PARP inhibitor” (DAIICHI SANKYO COMPANY, LIMITED, priority 2019, dated 2026).

The target in one test is T1, human claudin-6 (Homo sapiens, UniProt P56747).
T1 construct: expressed in transfected cells; host or cells: CHO-K1 cells
T1 sequence (P56747 1-220): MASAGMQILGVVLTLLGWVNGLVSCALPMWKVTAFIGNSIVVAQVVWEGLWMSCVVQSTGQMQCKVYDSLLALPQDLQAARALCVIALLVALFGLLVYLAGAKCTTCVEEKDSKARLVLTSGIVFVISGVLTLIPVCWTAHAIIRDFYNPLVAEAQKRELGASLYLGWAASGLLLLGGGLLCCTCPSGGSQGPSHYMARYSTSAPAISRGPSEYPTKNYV
Description: FACS analysis of hybridoma antibodies on claudin-6 forced-expression cells. The note with it: human claudin-6-expressing CHO-K1 cells, cDNA transfection. In kind it is binding. As for the experimental part:
Since the antigen for the 218B1 antibody and 218C7 antibody was estimated to be claudin-6 from the mass spectrometry, forced expression analysis by cDNA transfection was carried out.

Test [1] deals with BxPC-3, human pancreatic cancer cell line of human CLDN6-negative cells. Description: Internalization activity of antibodies (Mab-ZAP, CellTiter-Glo). In kind it is cell-based. The conditions noted are these: antibody 1 nM with Mab-ZAP 0.5 nM, 5 days. As for the experimental part:
(§1) Internalization activity of the mouse anti-CLDN6 antibodies B1 and C7 was evaluated by using the anti-mouse IgG reagent, to which a toxin that inhibits protein synthesis (saporin) had been conjugated, Mab-ZAP (Advanced Targeting Systems). In this evaluation, Mab-ZAP is incorporated into cells in a manner depending on the internalization activity of a mouse anti-CLDN6 antibody, and saporin, which inhibits protein synthesis, is released in the cells to suppress cell growth.
(§2) JEG-3 (ATCC HTB-36), a human choriocarcinoma cell line of human CLDN6-positive cells, NIH: OVCAR-3 (ATCC HTB-161), a human ovarian cancer cell line of human CLDN6-positive cells, or BxPC-3 (ATCC CRL-1687), a human pancreatic cancer cell line of human CLDN6-negative cells, was seeded in a 96-well cell culture microplate at 2×10^3 cells/well, and cultured under conditions of 37° C. and 5% CO2 overnight. On the next day, a mixed solution obtained by mixing each mouse anti-CLDN6 antibody or mouse IgG1 antibody (R&D Systems, Inc.) to a final concentration of 1 nM, with Mab-ZAP (final concentration: 0.5 nM) or AffiniPure Goat Anti-Mouse IgG, Fcγ Fragment Specific (Jackson ImmunoResearch Laboratories Inc.) (final concentration: 0.5 nM), without conjugated toxin, was added, and the cells were cultured under conditions of 37° C. and 5% CO2 for 5 days. The number of surviving cells was determined through quantification of ATP activity by using CellTiter-Glo Luminescent Cell Viability Assay (Promega Corporation).

In test [2] the test system is JEG-3, human choriocarcinoma cell line of human CLDN6-positive cells. The test is described as above. In kind it is cell-based. The note with it: antibody 1 nM with Mab-ZAP 0.5 nM, 5 days. As for the experimental part: as §1, §2
The test system of test [3] is NIH: OVCAR-3, human ovarian cancer cell line of human CLDN6-positive cells. The test is described as above. In kind it is cell-based. The conditions noted are these: antibody 1 nM with Mab-ZAP 0.5 nM, 5 days. As for the experimental part: as §1, §2

B1: B1: mouse anti-CLDN6 antibody from hybridoma 218B1; heavy chain variable region SEQ ID NO: 21, light chain SEQ ID NO: 19 (antibody, listed as Mus musculus, V domains shown)
VH: EVQLQQSGPELVKPGASVKISCKTSGYTFTEYTMHWVQQSHGKSLEWIGGVNPNSGDTSYNQKFKGKATLTVDKSSSTAYMELRSLTSEDSAVYYCARPGGYDVGYYAMDYWGQGTSVTVSS
VL: DIQMTQTASSLSASLGDRVTISCRASQDINNYLNWYQQKPDGTVKLLIYFTSRLHSGVPSRFSGSGSGTHYSLTITNLEQEDIATYFCQQGYPLPWTFGGGTKLEIK
modifications: amino acid sequence of variable region of B1 antibody heavy chain; amino acid sequence of variable region of B1 antibody light chain
Turning to B1, the FACS reaction result in the test with human claudin-6 is listed as “strong positive reaction”. For the same molecule, the “Cell growth-suppressing effect (internalization activity)” value in test [1] is on record as “no cell growth-suppressing effect”; in test [2] it was “cell growth-suppressing effect”; in test [3], “cell growth-suppressing effect”.

B2: C7: mouse anti-CLDN6 antibody from hybridoma 218C7; heavy chain variable region SEQ ID NO: 25, light chain SEQ ID NO: 23 (antibody, listed as Mus musculus, V domains shown)
VH: EVQLQQSGPELVKPGASVKISCKTSGYTFTEYTMHWVQQSHGKSLEWIGGVNPNSGDTSYNQKFKGKATLTVDKSSSTAYMELRSLTSEDSAVYYCARPGGYDVGYYAMDYWGQGTSVTVSS
VL: DIQMTQTASSLSASLGDRVTISCRASQDINNYLNWYQQKPDGTVKLLIYSTSRLHSGVPSRFSGSGSGTHYSLTITHLEQEDIATYFCQQGYPLPWTFGGGTKLEIK
modifications: amino acid sequence of variable region of C7 antibody heavy chain; amino acid sequence of variable region of C7 antibody light chain
On to B2, for which the FACS reaction entry with human claudin-6 was “strong positive reaction”. In addition, the “Cell growth-suppressing effect (internalization activity)” value in test [1] was “no cell growth-suppressing effect”; in test [2] it was “cell growth-suppressing effect”; in test [3], “cell growth-suppressing effect”.
